Laboratory results as given in patent US20240398964A1, “PEPTIDE FOR PENETRATING BLOOD-BRAIN BARRIER AND USE THEREOF” (NIBEC CO., LTD., priority 2021, published 2024).

What was measured:
[1] = Brain delivery of peptide-antibody complex in normal animals (IVIS organ fluorescence, Optix MX3 3D brain image); type: in vivo, hairless mouse (SKH-1); settings: Cy5.5 labeled, intravenous 4 mg/kg; for fluorescence in the brain (IVIS): FIG. 4(a); for extent of penetration into the brain (three-dimensional image): Optix MX3, FIG. 4(b)
Description: Cy5.5 labeled SEQ ID NO: 17 peptide for penetrating the blood-brain barrier, Cy5.5 labeled SEQ ID NO: 59 antibody, and the complex of Cy5.5-labeled SEQ ID NO: 17 peptide for penetrating the blood-brain barrier and SEQ ID NO: 59 antibody were injected intravenously at 4 mg/kg each to hairless mouse (SKH-1, female, 6 weeks old, OrientBio), and fluorescence in each organ (brain, liver, lung, spleen, kidney, heart) was measured at excitation: 685 nm and emission: 706 nm using IVIS (Perkin Elmer). In addition, three-dimensional images of the brain alone were measured using Optix MX3 (ART Advanced Research Technologies Inc.).

[2] = Concentration in blood and brain tissue of peptide-antibody complex in normal animals (IVIS); type: in vivo, hairless mouse (SKH-1)
Description: The control cell permeability peptide (TAT) and antibody of SEQ ID NO: 59 were prepared in the same manner as the expression method in Example 2 and labeled with cy5.5. The complex of the peptide for penetrating the blood-brain barrier of SEQ ID NO: 41 in which CGGGG was introduced in N term and the antibody of SEQ ID NO: 59 prepared in Example 2 was labeled labeled with Cy5.5. The antibody of SEQ ID NO: 59 was labeled with Cy5.5 and injected intravenously into hairless mouse (SKH-1, female, 6 weeks old, OrientBio) at 10 mg/kg each. Concentrations in brain and blood were measured at excitation: 685 nm and emission: 706 nm using IVIS (Perkin Elmer) until day 24, and the results are shown in FIG. 5.

[3] = tested on: U87MG-Luc 2 glioblastoma; assay: Brain tumor animal model, bioluminescence and distribution at tumor site; type: in vivo, mouse; settings: for bioluminescence of U87MG-Luc brain tumor cells: 1 mg/kg intravenous every 3 days, 4 doses, observed 16 days
Description: Using a brain tumor animal model, the ability of the complex of the peptide for penetrating the blood-brain barrier and antibody to penetrate the brain, inhibit brain tumors, and be distributed in the brain parenchyma was measured. Specifically, U87MG-Luc 2 (ATCC, HTB-14-LUC2™) cells, a luciferase-expressing U87MG glioblastoma, were cultured in DMEM medium supplemented with 10% FBS and 1% antibiotics. Nude 5- to 7-week-old mouse (Orient Bio) was anesthetized with isoflurane and immobilized using ear bars inside a stereotaxic instrument. After incising the scalp at the surgical site, a hole was made using a sterile drill 2 mm to the right to and 2 mm under the bregma. Then, 1.0×10^5/10 μL U87MG-Luc-2 cells were injected through the above hole with a 26G Hamilton syringe (1 μl/min), and after injection, the hole was closed with bone wax and sutured to close the scalp. The proliferation of transplanted glioblastoma was obtained by injecting D-luciferin potassium (15 mg/mL dissolved in PBS, sigma), a substrate of luciferase, at 150 mg/kg, to a mouse, and sacrificing it after 10 min, and measuring the bioluminescence using IVIS (Perkin Elmer), and the results are shown in FIG. 6.
Starting 4 days after glioblastoma transplantation, 1 mg/kg of the complex of CGGGG-SEQ ID NO: 41 peptide for penetrating the blood-brain barrier and SEQ ID NO: 59 antibody and 1 mg/kg SEQ ID NO: 59 antibody were injected intravenously. The administration interval between doses was every 3 days for a total of 4 doses for 16 days. […] FIG. 6 (a) is the photo of an IVIS observation of bioluminescence of U87MG-Luc cells on day 16. […] After 16 days of bioluminescence observation, the bioluminescence continued to increase in the glioblastoma transplanted and untreated group.
The complex of a peptide for penetrating the blood-brain barrier of CGGGG-SEQ ID NO: 41 labeled with cy5.5 and a SEQ ID NO: 59 antibody was administered to the same animal model 8 hours before sacrifice, and the brain was harvested. After frozen sectioning, the distribution of fluorescence was observed by confocal microscopy.

[4] = Cy5.5 labeled, intravenous 10 mg/kg

Molecule	fluorescence in the brain (IVIS) [1]	extent of penetration into the brain (three-dimensional image) [1]	fluorescence in brain tissue, % of the initial dose ([2]; 4 days after intravenous injection, 10 mg/kg)	blood levels compared with the antibody linked to TAT [2, 4]	bioluminescence of U87MG-Luc brain tumor cells [3]	distribution of fluorescence in the brain (confocal, frozen sections) ([3]; cy5.5 labeled, administered 8 hours before sacrifice, FIG. 6(c))	fluorescence in brain tissue [2, 4]	time to clearance from the blood ([2]; Cy5.5 labeled, intravenous 10 mg/kg, measured until day 24)
VSRRRRRRRGGRRRRR-VPALR [SEQ ID NO: 17]	fluorescence could be observed in the brain	the extent of penetration into the brain was large	–	–	–	–	–	–
complex of Cy5.5-labeled SEQ ID NO: 17 peptide for penetrating the blood-brain barrier and SEQ ID NO: 59 antibody: complex of SEQ ID NO: 17 blood-brain barrier penetrating peptide and SEQ ID NO: 59 … (conjugate, Cy5.5 label; conjugated complex) chain 1: VSRRRRRRGGRRRRVPALR chain 2: MAWVWTLLFLMAAAQSIQAEWIKQRPGQGLEWIGVIHPGNGGTNYNENFKGKATLTADKSSSTAYMQLSSLTSDDSAVYFCASGNDGSYWGQGTTVTVSSGGGGSGKGGSGGGGSGGGGSDIELTQSPSSLTVTAGEKVTMSCKSSQSLLNSGDQKIYLTWYQQKPGQPPKLLIYWASTRESGVPDRFTGSVSGTDFTLTISSVQAEDLAVYYCQNDYNYPYTFGGGTKCLEIKRGSENLYFQGGSGKPIPNPLLGLDSTGGSGGSHHHHHH	fluorescence could be observed in the brain	the extent of penetration into the brain was large	–	–	–	–	–	–
complex of CGGGG-SEQ ID NO: 41 peptide for penetrating the blood-brain barrier and SEQ ID NO: 59 antibody: SEQ ID NO: 41 peptide with N-terminal linker CGGGG chemically conjugated to antibody of SEQ … (conjugate, N-terminal CGGGG linker; chemical conjugation) chain 1: VSRRRRRRGGRRRRHAIYPRH chain 2: MAWVWTLLFLMAAAQSIQAEWIKQRPGQGLEWIGVIHPGNGGTNYNENFKGKATLTADKSSSTAYMQLSSLTSDDSAVYFCASGNDGSYWGQGTTVTVSSGGGGSGKGGSGGGGSGGGGSDIELTQSPSSLTVTAGEKVTMSCKSSQSLLNSGDQKIYLTWYQQKPGQPPKLLIYWASTRESGVPDRFTGSVSGTDFTLTISSVQAEDLAVYYCQNDYNYPYTFGGGTKCLEIKRGSENLYFQGGSGKPIPNPLLGLDSTGGSGGSHHHHHH	–	–	approximately 7%	higher	the bioluminescence caused by brain tumor cells decreased	distributed in the area where the brain tumor occurred	–	–
SEQ ID NO: 59 antibody: antibody represented by amino acid sequence of SEQ ID NO: 59, has therapeutic efficacy in glioblastoma (protein) MAWVWTLLFLMAAAQSIQAEWIKQRPGQGLEWIGVIHPGNGGTNYNENFKGKATLTADKSSSTAYMQLSSLTSDDSAVYFCASGNDGSYWGQGTTVTVSSGGGGSGKGGSGGGGSGGGGSDIELTQSPSSLTVTAGEKVTMSCKSSQSLLNSGDQKIYLTWYQQKPGQPPKLLIYWASTRESGVPDRFTGSVSGTDFTLTISSVQAEDLAVYYCQNDYNYPYTFGGGTKCLEIKRGSENLYFQGGSGKPIPNPLLGLDSTGGSGGSHHHHHH	fluorescence was not observed in the brain	observed to a lesser extent inside the brain	–	–	many brain tumor cells survived	–	no fluorescence was measured in brain tissue	≤ 12 days
